Measurements from PMC3365061.

Target: K5,83R-JMD (mouse)
Test: co-IP; RFP chimeras immunoprecipitated with rabbit polyclonal anti-RFP on Protein A beads (Figure 2C also with E2 antibody to the E-cadherin cytoplasmic domain) from MDCK extracts, 0.1% Triton X-100 in CSK buffer (50 mM NaCl, 300 mM sucrose, 10 mM Pipes pH 6.8, 3 mM MgCl2), 4°C; stable or transient expression; with or without 10 µM MG-132 for 4 h, 10 mM NEM in the extraction buffer, Src-GFP or Hakai-FLAG expression; blots for p120-catenin and tubulin

- fold amount co-immunoprecipitated, against WT-JMD: 10 fold
- fold increase of the amount co-immunoprecipitated upon proteasome inhibition: 0.4 fold
Substance: p120-catenin (natural protein)
